From patent publication US20160251440A1
Each block holds one binder with its values, some of them ahead of it.

What was measured:
[1] = target: human CXCR4 (on cells, viral lipoparticles or membrane extracts) (human) (UniProt P61073); assay: cell-based or functional assay
[2] = target: human CXCR4 (on cells, viral lipoparticles or membrane extracts) (human) (UniProt P61073); assay: ELISA on coated CXCR4 viral lipoparticles (upper right panel)
[3] = target: recombinant IL-3Rα ectodomain (human) (UniProt P26951); assay: ELISA on recombinant IL-3Ra ectodomain (panel 'IL-3Ra ELISA', lower left)
Chain of recombinant IL-3Rα ectodomain (human) (P26951 19-305): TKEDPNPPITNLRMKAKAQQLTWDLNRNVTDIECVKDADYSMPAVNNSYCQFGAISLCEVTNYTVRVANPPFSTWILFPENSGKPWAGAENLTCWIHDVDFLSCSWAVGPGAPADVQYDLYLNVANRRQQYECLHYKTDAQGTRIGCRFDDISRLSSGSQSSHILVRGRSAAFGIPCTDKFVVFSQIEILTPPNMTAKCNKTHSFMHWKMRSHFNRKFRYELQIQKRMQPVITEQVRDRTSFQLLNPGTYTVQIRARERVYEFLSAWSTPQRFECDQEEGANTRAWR

[4] = target: human IL-23R, cell-expressed (human) (UniProt Q5VWK5); assay: cell-based or functional assay
Chain of human IL-23R, cell-expressed (human) (Q5VWK5 24-629): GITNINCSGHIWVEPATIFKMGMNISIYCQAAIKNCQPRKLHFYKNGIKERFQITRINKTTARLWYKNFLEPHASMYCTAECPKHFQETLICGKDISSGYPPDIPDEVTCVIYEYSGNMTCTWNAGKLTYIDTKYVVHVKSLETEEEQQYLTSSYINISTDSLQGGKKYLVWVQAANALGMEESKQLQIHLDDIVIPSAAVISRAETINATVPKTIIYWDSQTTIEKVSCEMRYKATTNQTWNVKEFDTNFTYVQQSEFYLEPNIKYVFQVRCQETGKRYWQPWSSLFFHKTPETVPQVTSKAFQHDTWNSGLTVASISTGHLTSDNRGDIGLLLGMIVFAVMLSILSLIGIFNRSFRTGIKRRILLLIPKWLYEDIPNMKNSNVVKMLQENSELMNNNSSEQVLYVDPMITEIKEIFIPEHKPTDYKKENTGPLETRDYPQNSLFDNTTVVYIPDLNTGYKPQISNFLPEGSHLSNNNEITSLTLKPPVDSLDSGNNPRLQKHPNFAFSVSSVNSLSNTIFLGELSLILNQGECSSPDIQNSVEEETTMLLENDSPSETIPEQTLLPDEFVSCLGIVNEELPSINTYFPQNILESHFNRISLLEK

[5] = target: human CXCR4 (on cells, viral lipoparticles or membrane extracts) (human) (UniProt P61073); assay: [125I]-SDF-1 displacement, Hek-CXCR4 membrane extracts
[6] = target: human CXCR4 (on cells, viral lipoparticles or membrane extracts) (human) (UniProt P61073); assay: FACS, Caki-CXCR4 cells
[7] = target: human CXCR4 (on cells, viral lipoparticles or membrane extracts) (human) (UniProt P61073); assay: FACS displacement of 30 nM biotin-SDF-1, Caki-CXCR4 cells

Chain of human CXCR4 (on cells, viral lipoparticles or membrane extracts) (human) (P61073 whole entry, the tested form may be a part): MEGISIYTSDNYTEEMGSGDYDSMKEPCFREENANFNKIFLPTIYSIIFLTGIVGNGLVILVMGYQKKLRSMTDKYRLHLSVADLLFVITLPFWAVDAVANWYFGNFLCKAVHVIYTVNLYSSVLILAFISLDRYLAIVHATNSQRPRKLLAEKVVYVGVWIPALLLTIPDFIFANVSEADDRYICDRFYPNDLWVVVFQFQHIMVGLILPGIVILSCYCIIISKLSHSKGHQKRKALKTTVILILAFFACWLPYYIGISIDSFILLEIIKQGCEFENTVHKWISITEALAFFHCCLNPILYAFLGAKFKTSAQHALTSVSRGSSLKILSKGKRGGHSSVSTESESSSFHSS

Fold inc. vs CXCR4#1, Jurkat E6-1 [1]: 0.87 fold | Fold inc. vs CXCR4#1, MOLM-13 [1]: 2.39 fold | IC50, CXCL-12 chemotaxis, Jurkat E6-1 [1]: 12 nM | IC50, CXCL-12 chemotaxis, MOLM-13 [1]: 3.6 nM | EC50 (read off the curve) [2]: 7 nM | EC50 (read off the curve) [3]: 1 nM
B1: 14D09-35GS-55A01 (bispecific antibody)
chain: EVQLVESGGGLVQAGGSLRLSCVASGISSSKRNMGWYRQAPGKQRESVATISSGGNKDYTDAVKDRFTISRDTTKNTVYLQMNSLKPEDTAVYYCKIEAGTGWATRRGYTYWGQGTLVTVSSGGGGSGGGGSGGGGSGGGGSGGGGSGGGGSGGGGSEVQLVESGGGSVQAGGSLRLSCTTSGRALNMYVMGWFRQAPGNEREFVAATSSSGGSTSYPDSVKGRFTISRDNAKNTVYLQMNSLKPEDTAAYRCAASPYVSTPTMNILEEYRYWGQGTLVTVSS

IC50, IL-17 release, PBMC D840 [4]: 58.9 nM | fold ctrl, IL-17 release [4]: 1.7 fold
B2: IL23R#19-35GS-CD4#8 (bispecific antibody)
chain: EVQLVESGGGLVQPGGSLTLSCVASGRTFSTDVMGWFRQAPGKEREFVAAHRTSGISTVYAASVKGRFTISRDNAKNTVYLGMKSLKPEDTAVYVCAAGSDASGGYDYWGQGTLVTVSSGGGGSGGGGSGGGGSGGGGSGGGGSGGGGSGGGGSEVQLVESGGGSVQPGGSLTLSCGTSGRTFNVMGWFRQAPGKEREFVAAVRWSSTGIYYTQYADSVKSRFTISRDNAKNTVYLEMNSLKPEDTAVYYCAADTYNSNPARWDGYDFRGQGTLVTVSS

Ki [5]: 5.4 nM | IC50, SDF-1 chemotaxis, Jurkat [1]: 7.6 nM | EC50 [6]: 3.4 nM | IC50 [7]: 2.1 nM
B3: 238D4 (VHH, from a related filing)
VHH: EVQLMESGGGLVQAGGSLRLSCAASGRTFNNYAMGWFRRAPGKEREFVAAITRSGVRSGVSAIYGDSVKDRFTISRDNAKNTLYLQMNSLKPEDTAVYTCAASAIGSGALRRFEYDYSGQGTQVTVSS
